# Reference: patent publication US20030096760A1 (GlaxoSmithKline, published 2003)
# [ ]: non-standard residue; d: D form.
# T1: DET1-DET2-spacer-ek-src SH2 (human src SH2 domain fusion protein) (human)
# T1 construct: In the assay it was captured on Protein-G Sepharose through MAB178.1; also called cloned human Src SH2 domain
# T1 chain: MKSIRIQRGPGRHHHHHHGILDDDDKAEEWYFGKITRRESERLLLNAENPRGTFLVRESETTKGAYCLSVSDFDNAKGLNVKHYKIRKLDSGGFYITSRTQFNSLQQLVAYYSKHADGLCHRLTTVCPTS
# B1: (S)-alpha-(acetylamino)-1,3-dihydro-3-hydroxy-1-oxo-5-isobenzofuranpropanamido-glutamate-glutamate-isoleucine-glutamate-amine (peptide)
# peptide: Ac-[(S)‑2‑amino‑3‑(1,3-dihydro-3-hydroxy-1-oxo-isobenzofuran-5-yl)propanoic acid]EEIE-NH2
# notes: Synthetic modified pentapeptide; also called Compound 1
# Target: T1, DET1-DET2-spacer-ek-src SH2 (human src …)
# Experiment: ELISA-based filter plate competition assay; SH2 fusion captured by MAB178.1, displacement of 0.1 uM biotinylated pY peptide (SEQ ID NO: 13)
binder,measurement,value
B1,IC50,250 nM
